Source: patent US20110044984A1 (Chugai, published 2011)

Molecular target: T1, extracellular domain of mouse AXL (mAXL-ECD; R&D) (mouse, UniProt Q00993 19-445)
T1 construct: extracellular domain; Bought protein
T1 sequence (looked up): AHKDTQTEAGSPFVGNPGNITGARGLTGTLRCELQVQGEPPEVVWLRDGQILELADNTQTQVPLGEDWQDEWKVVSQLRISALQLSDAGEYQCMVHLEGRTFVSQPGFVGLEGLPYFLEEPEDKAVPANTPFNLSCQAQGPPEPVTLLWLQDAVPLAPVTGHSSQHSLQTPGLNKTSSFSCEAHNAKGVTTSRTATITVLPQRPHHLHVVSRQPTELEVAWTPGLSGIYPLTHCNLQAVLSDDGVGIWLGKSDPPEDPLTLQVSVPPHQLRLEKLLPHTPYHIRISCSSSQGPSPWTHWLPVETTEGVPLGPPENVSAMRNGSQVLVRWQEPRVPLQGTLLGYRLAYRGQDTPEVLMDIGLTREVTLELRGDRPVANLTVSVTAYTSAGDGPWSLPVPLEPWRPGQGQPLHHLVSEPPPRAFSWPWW
Assay: ELISA, antibody at 3 µg/mL on coated mAXL-ECD
Method: After the extracellular domain of mouse AXL (hereinafter referred to as mAXL-ECD; R&D) was diluted with coating buffer (100 mM sodium bicarbonate buffer, pH 9.6) to 2 μg/mL, 100 μL was dispensed into a 96-well plate (Nunc-Immuno™ 96 MicroWell™ MaxiSorp™ plates; Nalge Nunc International). After the plate was placed in a refrigerator overnight, the antibody solution in the plate was removed, 200 μL/well of diluent buffer (BlockingOne; Nacalai Tesque) was dispensed, and then blocked for two hours at room temperature. After the removal of the diluent buffer, the anti-AXL antibody prepared above diluted to 3 μg/mL with diluent buffer was dispensed at 100 μL/well, and allowed to stand for 1.5 hours at room temperature. After the removal of the antibody solution, the wells were washed three times with tPBS(−). […] After the removal of the antibody solution, the wells were washed three times with tPBS(−). 100 μL/well of alkaline phosphatase chromogenic substrate solution (BluePhos Microwell Phosphatase Substrate System, Kirkegaad & Perry Laboratories) was dispensed, followed by color development at room temperature. The absorbance at 650 nm was then measured with a microplate reader (Emax, Molecular Devices).

B1: anti-AXL monoclonal antibody Ax225 (hybridoma AXL No. 225 #070402, Accession No. FERM BP-10854) (antibody, V domains shown)
VH: QVQLKQSGPGLVAPSQSLSITCTVSGLSLTSFGVDWVRQSPGKGLEWLGVIWGGGSTNYNSALKSRLSISKDNSKSQVFLKMNSLQTDDTAMYYCAGEGSKYGAWFAYWGQGTLVTVSS
VL: DVLMTQTPLSLPVSLGDQASISCRSSQNIVHTNGNTYLEWYLQKPGQSPELLIYKVSNRFSGVPDRFSGSGSGTDFTLKISRVEAEDLGVYYCFQGSHIPFTFGTGTKLEIK
notes: Mouse antibody from a hybridoma; Variable genes were amplified with constant region primers MHCg1 (H chain) and MLCk (L chain); also called AXL225 mouse antibody
B1: binds.
